Test results reported in PMC7347944.
“And” between values parts separate entries of the source, which are not always exact repeats. Identical values can stand only once.

Experiments:
[1] = target: huPrP(23−144) (human) (UniProt P04156); experiment: co-sedimentation
[2] = target: huPrP(23−144) (human) (UniProt P04156); experiment: NMR titration

With “α-synuclein oligomers (from UniProt P37840 1-140) (complex)” the stoichiometry N (αSyn:huPrP(23−144)) [1] was 0.96 and the stoichiometry N (αSyn:huPrP molar ratio) [2] was 1.45 and 0.92.
